# Reference: article PMC10009750, “Development of Selective ADAMTS-5 Peptide Substrates to Monitor Proteinase Activity” (Journal of Medicinal Chemistry, 2023)
# Non-standard residues stand in square brackets, D forms with d. No end group written: not given here. Tyr(3-NO2) = N[C@@H](Cc1ccc(O)c([N+](=O)[O-])c1)C(=O)O; 2Abz = Nc1ccccc1C(=O)O
# Key:
# Format in all cases: biochemical
# [1] = molecular target: T1, MMP-2ΔC (catalytic domain of MMP-2) (Homo sapiens, UniProt P08253); experiment: Selectivity studies: cleavage of FRET peptide substrates by MMP-2ΔC; details: substrate 20 μM, MMP-2ΔC 5–10 nM, TNC buffer with 0.005% (v/v) Brij-35, 37 °C; mean of 3–4 independent experiments in triplicate
# T1 construct: the catalytic domain of MMP-2, i.e., MMP-2ΔC; made in house; host or cells: HEK293 cells (previously transfected stocks)
# Method: (§1) All proteinase assays were performed at 37 °C in a SpectraMax M5 spectrophotometer (Molecular Devices, San Jose, USA) using a 96-well black microplate (Greiner bio-one, Stonehouse, UK) unless otherwise stated. […] N-TIMP-3 was purified as described previously[30] and CT-1746 was a gift from Dr. Yoshifumi Itoh (Kennedy Institute of Rheumatology, University of Oxford). All analyses were carried out using Prism 9 software (GraphPad, La Jolla, CA, USA).
# (§2) Selectivity studies are described for Abz-TESE↓SRGAIY-Dpa-KK-NH2, the library parent peptide 3, and hit peptides 18–26. A solution of Abz-TESE↓SRGAIY-Dpa-KK-NH2 (22.22 μM) in freshly prepared TNC buffer with 0.005% (v/v) Brij-35 (90 μL) was added to a 96-well clear bottom microplate (Greiner bio-one, Stonehouse, UK) in triplicate. A substrate-only background control was also added in triplicate (90 μL). The resultant solutions were incubated at 37 °C (30 min). An ADAMTS or MMP proteinase was added to substrate wells (10 μL) to give a final proteinase concentration of either 50–90 nM (TS4-4), 25–200 nM (TS5-5), 5–10 nM (MMP-2ΔC), 30 nM (MMP-9ΔC), 92 nM (MMP-1), or 3 μM (MMP-3). TNC buffer with 0.005% (v/v) Brij-35 was added to substrate-only control wells (10 μL). The relative fluorescence intensity was measured at 37 °C for 1 h with readings every 20 s. Activity was read from underneath the microplate, which was covered with a low evaporation lid. […] For each ADAMTS and MMP proteinase, the assay was performed 2–4 times. […] Final rates were expressed as a percentage of substrate cleavage by TS5-5 (mean ± SEM) or in μM s^–1 μM^–1 of proteinase.
# MMP-1 (full length) = experiment: Selectivity studies: cleavage of the current substrate by MMP-1; details: substrate 20 μM, MMP-1 92 nM, up to 72 h, 37 °C; single triplicate experiment
# Method: as §1
# Selectivity studies are described for Abz-TESE↓SRGAIY-Dpa-KK-NH2, the library parent peptide 3, and hit peptides 18–26. A solution of Abz-TESE↓SRGAIY-Dpa-KK-NH2 (22.22 μM) in freshly prepared TNC buffer with 0.005% (v/v) Brij-35 (90 μL) was added to a 96-well clear bottom microplate (Greiner bio-one, Stonehouse, UK) in triplicate. A substrate-only background control was also added in triplicate (90 μL). The resultant solutions were incubated at 37 °C (30 min). […] The relative fluorescence intensity was measured at 37 °C for 1 h with readings every 20 s. Activity was read from underneath the microplate, which was covered with a low evaporation lid. […] Final rates were expressed as a percentage of substrate cleavage by TS5-5 (mean ± SEM) or in μM s^–1 μM^–1 of proteinase.
# [2] = molecular target: T2, TS5-5 (combined catalytic and disintegrin domain of ADAMTS-5) (Homo sapiens, UniProt Q9UNA0); experiment: Cleavage of FRET peptide substrates by TS5-5 in solution (activity/selectivity studies); details: substrate 20 μM, 37 °C
# T2 construct: ADAMTS-5 (i.e. TS5-5, residues 264–555); FLAG; made in house; host or cells: HEK293 cells (previously transfected stocks)
# T2 sequence (Q9UNA0 264-555): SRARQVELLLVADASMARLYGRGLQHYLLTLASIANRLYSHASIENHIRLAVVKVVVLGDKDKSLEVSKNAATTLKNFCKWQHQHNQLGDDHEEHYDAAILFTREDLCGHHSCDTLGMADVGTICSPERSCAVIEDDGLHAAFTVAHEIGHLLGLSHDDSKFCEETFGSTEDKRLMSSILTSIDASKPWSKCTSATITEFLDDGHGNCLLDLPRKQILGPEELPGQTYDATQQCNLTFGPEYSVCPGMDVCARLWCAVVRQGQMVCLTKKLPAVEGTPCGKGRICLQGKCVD
# Method: as §1
# (§3) To test whether active TS5-5 had been purified, three concentrations of proteinase were assayed. A solution of Abz-TESE↓SRGAIY-Dpa-KK-NH2 (22.22 μM) in freshly prepared TNC buffer with 0.02% (v/v) Brij-35 (180 μL) was added to a 96-well black microplate in triplicate for each proteinase concentration. A substrate-only background control was also added in triplicate (180 μL). The resultant solutions were incubated at 37 °C (30 min). TS5-5 proteinase in TNC buffer with 0.02% (v/v) Brij-35 (20 μL) was added to wells to give final proteinase concentrations of 80 nM, 40 nM and 20 nM. TNC buffer with 0.02% (v/v) Brij-35 (20 μL) was also added to background control wells. The change in RFU was measured at 37 °C for 1 h, with readings every 20 s. Following subtraction of background fluorescence intensity, linear regression analysis of the linear part of each curve was used to determine the cleavage rate, which was expressed as the mean ± SEM in RFU s^–1. For cases where a single concentration of TS5-5 or TS4-4 was assayed, the same procedure was used but with 0.005% (v/v) Brij-35 and using the 5-FAM-AE↓LQGRPISIAK-TAMRA substrate for TS4-4 (0.56 μM). To convert cleavage rates to nM s^–1 nM^–1, the rate in RFU s^–1 was divided by the final concentration of proteinase (nM), then divided by the gradient of the calibration curve for Abz or 5-FAM (expressed in RFU nM^–1).
# as §2
# TS5-5 (ADAMTS-5) = molecular target: T3, TS5-5 (ADAMTS-5) (Homo sapiens, UniProt Q9UNA0); experiment: Rate of cleavage of 3 and 26 by TS5-5 at different substrate concentrations; details: TS5-5 57 nM, after 1 h, 37 °C
# T3 construct: ADAMTS-5 (i.e. TS5-5, residues 264–555); FLAG; made in house; host or cells: HEK293 cells (previously transfected stocks)
# T3 sequence (Q9UNA0 264-555): T2 sequence (Q9UNA0 264-555)
# Method: as §3, with “A solution of Abz-TESE↓SRGAIY-Dpa-KK-NH2 (22.22 μM) in freshly prepared TNC buffer with 0.02% (v/v) Brij-35 (180 μL) was added to a 96-well black microplate in triplicate for each proteinase concentration.” left out, “TS5-5 proteinase in TNC buffer with 0.02% (v/v) Brij-35 (20 μL) was added to wells to give final proteinase concentrations of 80 nM, 40 nM and 20 nM.” left out
# This was carried out according to the procedure described for activity studies of ADAMTSs with a single concentration of proteinase, except that a range of substrate concentrations was used for 3 and 26 (20 to 0.63 μM). Additionally, control wells for each substrate concentration were used in single replicate. The final concentration of TS5-5 was 57 nM.
# T1 sequence (P08253 110-465 limits assumed, stated change not applied): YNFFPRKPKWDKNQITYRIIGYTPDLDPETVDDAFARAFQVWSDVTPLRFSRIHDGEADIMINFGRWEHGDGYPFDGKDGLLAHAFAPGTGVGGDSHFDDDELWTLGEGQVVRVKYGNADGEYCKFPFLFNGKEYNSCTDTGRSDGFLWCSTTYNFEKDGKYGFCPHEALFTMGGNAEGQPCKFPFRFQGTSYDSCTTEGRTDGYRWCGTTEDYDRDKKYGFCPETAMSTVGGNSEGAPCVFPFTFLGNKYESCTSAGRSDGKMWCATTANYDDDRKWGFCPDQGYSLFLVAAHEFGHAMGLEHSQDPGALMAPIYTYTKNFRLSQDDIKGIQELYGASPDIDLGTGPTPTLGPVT
Substance,rate of cleavage by MMP-2ΔC [1] [μM s^–1 μM^–1],cleavage by MMP-1 (MMP-1 (full length)),improvement in cleavage (overall cleavage rate) by TS5-5 compared to the current substrate [2] [fold],lowest concentration of substrate detectibly cleaved by TS5-5 (ΔRFU ≥ 300) (TS5-5 (ADAMTS-5)) [µM]
"Abz-TESE↓SRGAIY-Dpa-KK-NH2 [current, ortho-aminobenzoyl(Abz)-TESE↓SRGAIY-N-3-[2,4-dinitrophenyl]-L-2,3-diaminopropionyl(Dpa)-KK-NH2, reference compound]",0.56,no cleavage was observed,,
KY(NO2)SENESRGK(Abz)IYYKKG (K[Tyr(3-NO2)]SENESRGK(2Abz)IYYKKG) [Compound 26],,,~3,5
KY(NO2)TESESRGK(Abz)IYYKKG (K[Tyr(3-NO2)]TESESRGK(Abz)IYYKKG) [Compound 3],,,~4,2.5
